Publication doi:10.1101/2021.07.09.451751v1
Where a chain is given by its changes, count along the chain named. Numbers in names are those of the source.

B1: histidine-tagged human MLH1 NTD (Homo sapiens; K311E) (protein)
chain: MSFVAGVIRRLDETVVNRIAAGEVIQRPANAIKEMIENCLDAKSTSIQVIVKEGGLKLIQIQDNGTGIRKEDLDIVCERFTTSKLQSFEDLASISTYGFRGEALASISHVAHVTITTKTADGKCAYRASYSDGKLKAPPKPCAGNQGTQITVEDLFYNIATRRKALKNPSEEYGKILEVVGRYSVHNAGISFSVKKQGETVADVRTLPNASTVDNIRSIFGNAVSRELIEIGCEDKTLAFKMNGYISNANYSVKKCIFLLFINHRLVESTSLRKAIETVYAAYLPKNTHPFLYLSLEISPQNVDVNVHPTEHEVHFLHEESILERVQQHIESKLLG
B2: histidine-tagged human MLH1 NTD (Homo sapiens) (protein)
chain: B1 chain with E311K
B3: ProS2-fused human PMS2 NTD (Homo sapiens; K91R) (protein)
chain: MERAESSSTEPAKAIKPIDRKSVHQICSGQVVLSLSTAVKELVENSLDAGATNIDLKLKDYGVDLIEVSDNGCGVEEENFEGLTLKHHTSRIQEFADLTQVETFGFRGEALSSLCALSDVTISTCHASAKVGTRLMFDHNGKIIQKTPYPRPRGTTVSVQQLFSTLPVRHKEFQRNIKKEYAKMVQVLHAYCIISAGIRVSCTNQLGQGKRQPVVCTGGSPSIKENIGSVFGQKQLQSLIPFVQLPPSDSVCEEYGLSCSDALHNLFYISGFISQCTHGVGRSSTDRQFFFINRRPCDPAKVCRLVNEVYHMYNRHQYPFVVLNISVDSECVDINVTPDKRQILLQEEKLLLAVLKTSLIGMFDS
B4: ProS2-fused human PMS2 NTD (Homo sapiens; K340E) (protein)
chain: B3 chain with R91K, K340E
B5: ProS2-fused human PMS2 NTD (Homo sapiens) (protein)
chain: B3 chain with R91K
B6: ProS2-fused human PMS2 NTD (Homo sapiens; K340A) (protein)
chain: B3 chain with R91K, K340A
B7: aqGyrB NTD (Aquifex aeolicus VF5) (protein)
chain: MKKRQSQTPQEYTAEAIKAVSGLEHVRLRPAMYIGDIGERGLHHLIWEILDNAVDEAVAGYARNISVTIHRDNSVTVEDDGRGIPVDIHPETGKPAVEMVFTMLGAGGKFEKKVYTYSGGLHGVGASVVNALSEWLIVEVYRDGKIYRMAFKRGEVVEPLHVVGETKKRGTKVSFKPDPEIFETTEIKFDIVEKRVRELAYLNPEVKFELTDERLGKHLIYKFDRGIEELVKYLNEGKEPLFKDIIRIQGEKEGVIVDIAFQYVKDYKERIESFVNNIKTVEGGTHVTGFRSGLSKAVIRMAQGLKLAKELKKSFTGEDVREGLTAVVACKVPNPQFEGQTKTKLGNQNVKQIVESITYDFLTSYFEKKRDVLKAIVEKAIEAALAREAAKKAKELV
B8: full-length aqMutL (Aquifex aeolicus VF5) (protein)
chain: MFVKLLPPEVRKVIAAGEVIESPVDVVKELVENSLDAKATKVEVEIVKGGKRLIRVKDNGTGIHPEDVEKVVLQGATSKIETEKDLMNISTYGFRGEALYSISSVSKFKLRSRFFQEKEGKEIEVEAGNILGTRRVGMPVGTEVEVRDLFFNLPVRRKFLKKEDTERRKVLELIKEYALTNPEVEFTLFSEGRETLKLKKSSLKERVEEVFQTKTEELYAEREGITLRAFVSRNQRQGKYYVFINKRPIQNKNLKEFLRKVFGYKTLVVLYAELPPFMVDFNVHPKKKEVNILKERKFLELVRELAGKEKPIVDIPLSQPVKTYKPTYEILGQMDETFILVKDSEYLYFVDQHLLEERINYEKLKDENLACRISVKAGQKLSEEKIRELIKTWRNLENPHVCPHGRPIYYKIPLREIYEKVGRNY
B9: full-length aqMutL (Aquifex aeolicus VF5; N282A) (protein)
chain: B8 chain with N282A
B10: full-length aqMutL (Aquifex aeolicus VF5; K79R) (protein)
chain: B8 chain with K79R
B11: full-length aqMutL (Aquifex aeolicus VF5; K287A) (protein)
chain: B8 chain with K287A
B12: full-length aqMutL (Aquifex aeolicus VF5; K28E) (protein)
chain: B8 chain with K28E

Substrate: Nc1ncnc2c1ncn2[C@@H]1O[C@H](COP(=O)(O)OP(=O)(O)OP(=O)(O)O)[C@@H](O)[C@H]1O
Assay: phosphate release, BIOMOL Green
Type: biochemical, Homo sapiens
Details: 50 mM HEPES-KOH pH 7.5, 100 mM NaCl, 5 mM MgCl2, 37 °C

How did the Km turn out when B1 was run?
Its Km is 750 ± 130 µM.

And the kcat?
Its kcat is 0.000333 ± 5e-05 s⁻¹.

B2 was tested. Which Km did it give?
The Km was 790 ± 75 µM.

And the kcat?
Its kcat is 0.00267 ± 0.000108 s⁻¹.

With B3 as the protein, how does the Km read?
The Km was 300 ± 42 µM.

What about the kcat of the same protein?
The kcat was 0.000733 ± 2.83e-05 s⁻¹.

Which Km does the source give for B4 here?
The Km was 80 ± 12 µM.

What about the kcat of the same protein?
The kcat was 0.000483 ± 3e-05 s⁻¹.

With B5 as the protein, how does the Km read?
Its Km is 190 ± 39 µM.

And the kcat?
Its kcat is 0.00617 ± 0.0003 s⁻¹.

With B6 as the protein, how does the Km read?
The Km was 160 ± 93 µM.

And the kcat?
Its kcat is 0.00105 ± 0.000135 s⁻¹.

Substrate: Nc1ncnc2c1ncn2[C@@H]1O[C@H](COP(=O)(O)OP(=O)(O)OP(=O)(O)O)[C@@H](O)[C@H]1O
Assay: phosphate release, BIOMOL Green
Type: biochemical, Aquifex aeolicus
Details: 50 mM HEPES-KOH pH 7.5, 100 mM NaCl, 5 mM MgCl2, 70 °C

What does the source list for B7?
Km: 250 ± 41 µM; kcat: 0.0367 ± 0.00217 s⁻¹

Which Km does the source give for B8 here?
The Km was 360 ± 190 µM.

What about the kcat of the same protein?
The kcat was 0.025 ± 0.0025 s⁻¹.

What does the source list for B9?
Km: 560 ± 54 µM; kcat: 0.000483 ± 1.67e-05 s⁻¹

How did the Km turn out when B10 was run?
The Km was 610 ± 130 µM.

And the kcat?
The kcat was 0.00283 ± 0.000233 s⁻¹.

What does the source list for B11?
Km: 370 ± 36 µM; kcat: 0.00767 ± 0.000383 s⁻¹

With B12 as the protein, how does the Km read?
The Km was 900 ± 73 µM.

And the kcat?
Its kcat is 0.00733 ± 0.000367 s⁻¹.
